Substrate: [H][C@]12CC=C3[C@]4([H])CC(C)(C)CC[C@]4(C(=O)O[C@@H]4O[C@H](CO)[C@H](O)[C@H](O)[C@H]4O)CC[C@@]3(C)[C@]1(C)CC[C@@]1([H])C(C)(C)[C@@H](OC(=O)CN3CCN(c4cc(O/N=[N+](/[O-])N(C)CCO)c([N+](=O)[O-])cc4[N+](=O)[O-])CC3)CC[C@]21C
Test: Activity at GSTpi (unknown origin) by Michaelis-Menten equation
Format: ADME, Homo sapiens

B1: Glutathione S-transferase P (Homo sapiens) (protein)
chain: MPPYTVVYFPVRGRCAALRMLLADQGQSWKEEVVTVETWQEGSLKASCLYGQLPKFQDGDLTLYQSNTILRHLGRTLGLYGKDQQEAALVDMVNDGVEDLRCKYISLIYTNYEAGKDDYVKALPGQLKPFETLLSQNQGGKTFIVGDQISFADYNLLDLLLIHEVLAPGCLDAFPLLSAYVGRLSARPKLKAFLASPEYVNLPINGNGKQ
- Km: 342 µM
- Vmax: 15.1 µmol/min
- kcat: 6.95 s⁻¹
- kcat/Km: 20100 M⁻¹ s⁻¹

Source: ChEMBL document CHEMBL2396531, “Hybrid molecule from O2-(2,4-dinitrophenyl)diazeniumdiolate and oleanolic acid: a glutathione S-transferase π-activated nitric oxide prodrug with selective anti-human hepatocellular carcinoma activity and improved stability” (J Med Chem, 2013)
